# Molecular target: HIS-PDZ1-2 protein (PSD-95 PDZ1-2 tandem) (human) (UniProt P78352)
# Assay: fluorescence polarization, heterologous competition against AB143 probe
substance,measurement,value
Tat-NR2B9c (peptide),Ki,4.6 µM

# Source: US20140094415A1
